The assay concerns the target T1, recombinant human CD123-Fc (human, UniProt P26951 19-305).
T1 construct: not shown: Fc part of CD123-Fc
T1 sequence: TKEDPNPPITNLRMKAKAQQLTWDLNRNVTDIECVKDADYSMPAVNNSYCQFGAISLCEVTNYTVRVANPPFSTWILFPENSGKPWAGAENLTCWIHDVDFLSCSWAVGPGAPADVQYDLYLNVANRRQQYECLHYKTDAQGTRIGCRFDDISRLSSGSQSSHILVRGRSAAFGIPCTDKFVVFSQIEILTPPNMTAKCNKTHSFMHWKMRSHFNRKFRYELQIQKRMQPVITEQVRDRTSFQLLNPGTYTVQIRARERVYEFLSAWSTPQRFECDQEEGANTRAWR
As to the kind of experiment: phage ELISA, captured CD123-Fc. In outline:
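Readout is the clone-averaged A450 ratio of target-Fc over IgG1-Fc wells, detected with HRP-conjugated anti-M13. Each Fc protein (5 nM) was captured on goat anti-human IgG1-Fc-coated plates. Phage were rescued with VCSM13 from BCMA-panning colonies and added at 5× dilution.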
Background: An ELISA detects its analyte on a solid surface through an enzyme-linked reagent.

B1: SEQ ID NO: 546 (designed binder)
chain: MGSWNEFDDRLLAIWGRLDALGGSEAELAFFEEQIAGFEDELQWYKGKGNPEVEALDQEAEAIEKELWAYRHN
notes: D domain, on phage
For the molecule B1, the ELISA_avg was 4.1 ratio A450 target/IgG1-Fc.

B2: SEQ ID NO: 539 (designed binder)
chain: MGSWSEFDSRLDAIAYRLFALGGSEAELAQFEWIIADFEEDLQMYKGKGNPEVEALFSEAYAIEIELNAYRHN
notes: D domain, on phage
Consider B2, for which the ELISA_avg was found to be 4.3 ratio A450 target/IgG1-Fc.

B3: SEQ ID NO: 542 (designed binder)
chain: MGSWEEFDQRLDAIDVRLYALGGSEAELAEFEFDIAAFEEWLQLYKGKGNPEVEALNMEAFAITDELCAYRHN
notes: D domain, on phage
For the molecule B3, the ELISA_avg is 3.6 ratio A450 target/IgG1-Fc.

B4: SEQ ID NO: 554 (designed binder)
chain: MGSWDEFYYRLVAITHRLHALGGSEAELAWFEDDIAGFEWDLQTYKGKGNPEVEALYKEAGAIGMELTAYRHN
notes: D domain, on phage
Consider B4, for which the ELISA_avg stood at 5.4 ratio A450 target/IgG1-Fc.

B5: SEQ ID NO: 555 (designed binder)
chain: MGSWEEFDTRLLAIFGRLGALGGSEAELALFEMLIAKFEDDLQNYKGKGNPEVEALSEEAFAIDHELGAYRHN
notes: D domain, on phage
In the case of B5, the ELISA_avg is 6.7 ratio A450 target/IgG1-Fc.

B6: SEQ ID NO: 520 (designed binder)
chain: MGSWHWFKEELAEIKEDLVALGGSEAELAWFEYDIAMFELSLQNYKGKGNPEVEALRKEAAAIRDELQAYRHN
notes: D domain, on phage
For B6, the ELISA_avg was 3.1 ratio A450 target/IgG1-Fc.

B7: SEQ ID NO: 521 (designed binder)
chain: MGSWNDFKEELAWIKFDLEALGGSEAELAWFEEDIAMFEQQLQAYKGKGNPEVEALRKEAAAIRDELQAYRHN
notes: D domain, on phage
As to B7, the ELISA_avg is 3.8 ratio A450 target/IgG1-Fc.

B8: SEQ ID NO: 530 (designed binder)
chain: MGSWSWFQWDLAGIKDHLEALGGSEAELAEFESEIAYFEDELQWYKGKGNPEVEALRKEAAAIRDELQAYRHN
notes: D domain, on phage
As to B8, the ELISA_avg came out at 12.9 ratio A450 target/IgG1-Fc.

B9: SEQ ID NO: 551 (designed binder)
chain: MGSWMEFDYRLEAIWMRLIALGGSEAELADFESSIADFEHHLQSYKGKGNPEVEALEWEAFAIGVELDAYRHN
notes: D domain, on phage
As for B9, the ELISA_avg came out at 3.1 ratio A450 target/IgG1-Fc.

B10: SEQ ID NO: 535 (designed binder)
chain: MGSWWEFDHRLTAIDTRLQALGGSEAELAEFESSIAEFEWWLQDYKGKGNPEVEALFAEAEAIYVELDAYRHN
notes: D domain, on phage
As to B10, the ELISA_avg amounted to 4.3 ratio A450 target/IgG1-Fc.

B11: SEQ ID NO: 537 (designed binder)
chain: MGSWYEFDHRLDAIYQRLWALGGSEAELAEFEYGIAEFEEYLQDYKGKGNPEVEALISEAWAIEWELSAYRHN
notes: D domain, on phage
Turning to B11, the ELISA_avg is 4.6 ratio A450 target/IgG1-Fc.

B12: SEQ ID NO: 557 (designed binder)
chain: MGSWEEFHERLDAIDERLEALGGSEAELAFFEDDIASFEDWLQWYKGKGNPEVEALSREADAINFELEAYRHN
notes: D domain, on phage
In the case of B12, the ELISA_avg came out at 4.3 ratio A450 target/IgG1-Fc.

B13: SEQ ID NO: 543 (designed binder)
chain: MGSWEEFDVRLDAIFNRLWALGGSEAELAEFEFDIAWFEMDLQEYKGKGNPEVEALFDEAEAITNELVAYRHN
notes: D domain, on phage
B13: the ELISA_avg was determined as 4.7 ratio A450 target/IgG1-Fc.

B14: SEQ ID NO: 533 (designed binder)
chain: MGSWAEFKQRLAAIKTRLEALGGSEAELAAFMDEIMAFEWELWAYKGKGNPEVEALMNEAFAIDVELYAYRHN
notes: D domain, on phage
As to B14, the ELISA_avg was 3.4 ratio A450 target/IgG1-Fc.

B15: SEQ ID NO: 550 (designed binder)
chain: MGSWYEFDERLWAIWERLDALGGSEAELAHFEWVIADFENDLQWYKGKGNPEVEALEFEAEAIVTELHAYRHN
notes: D domain, on phage
In the case of B15, the ELISA_avg is 3.6 ratio A450 target/IgG1-Fc.

B16: SEQ ID NO: 545 (designed binder)
chain: MGSWYEFDHRLEAIYDRLWALGGSEAELAFFEFDIADFEWDLQSYKGKGNPEVEALFDEAAAIGHELLAYRHN
notes: D domain, on phage
B16: the ELISA_avg came to 4.5 ratio A450 target/IgG1-Fc.

B17: SEQ ID NO: 547 (designed binder)
chain: MGSWVEFDDRLDAIWERLDALGGSEAELAWFEEQIAVFEHQLQDYKGKGNPEVEALNQEAEAIDLELKAYRHN
notes: D domain, on phage
As to B17, the ELISA_avg came out at 5 ratio A450 target/IgG1-Fc.

B18: SEQ ID NO: 526 (designed binder)
chain: MGSWAEFKHDLADIKRELEALGGSEAELAWFELSIAFFEDELQHYKGKGNPEVEALRKEAAAIRDELQAYRHN
notes: D domain, on phage
For the molecule B18, the ELISA_avg worked out at 3.3 ratio A450 target/IgG1-Fc.

B19: SEQ ID NO: 531 (designed binder)
chain: MGSWTEFKGELAEIKWILEALGGSEAELAFFEDEIAAFEWDLQKYKGKGNPEVEALRKEAAAIRDELQAYRHN
notes: D domain, on phage
As to B19, the ELISA_avg was 8.2 ratio A450 target/IgG1-Fc.

B20: SEQ ID NO: 544 (designed binder)
chain: MGSWEEFDKRLDAITRRLMALGGSEAELAEFESTIAWFEWDLQEYKGKGNPEVEALDWEAYAIDYELGAYRHN
notes: D domain, on phage
B20: the ELISA_avg amounted to 4.5 ratio A450 target/IgG1-Fc.

B21: SEQ ID NO: 529 (designed binder)
chain: MGSWHWFKEDLAMITDVLEALGGSEAELAAFESEIAVFEADLQYYKGKGNPEVEALRKEAAAIRDELQAYRHN
notes: D domain, on phage
On to B21, for which the ELISA_avg was 5.2 ratio A450 target/IgG1-Fc.

B22: SEQ ID NO: 523 (designed binder)
chain: MGSWDEFKEDLAHIKTDLEALGGSEAELALFEDEIADFEMYLQHYKGKGNPEVEALRKEAAAIRDELQAYRHN
notes: D domain, on phage
As to B22, the ELISA_avg was found to be 6.3 ratio A450 target/IgG1-Fc.

B23: SEQ ID NO: 553 (designed binder)
chain: MGSWEEFYMRLVAIHMRLRALGGSEAELAVFENYIAEFEEYLQYYKGKGNPEVEALTIEADAIGTELGAYRHN
notes: D domain, on phage
On to B23, for which the ELISA_avg is 4.4 ratio A450 target/IgG1-Fc.

B24: SEQ ID NO: 549 (designed binder)
chain: MGSWSEFDQRLEAIWNRLDALGGSEAELADFEREIAYFENQLQWYKGKGNPEVEALNNEAFAIVDELGAYRHN
notes: D domain, on phage
As to B24, the ELISA_avg stood at 3.4 ratio A450 target/IgG1-Fc.

B25: SEQ ID NO: 525 (designed binder)
chain: MGSWYQFKDDLAHIKHLLEALGGSEAELAVFEYIIADFESFLQIYKGKGNPEVEALRKEAAAIRDELQAYRHN
notes: D domain, on phage
For B25, the ELISA_avg worked out at 4 ratio A450 target/IgG1-Fc.

B26: SEQ ID NO: 552 (designed binder)
chain: MGSWYEFESRLEAIWWRLEALGGSEAELAQFEQYIADFEQHLQWYKGKGNPEVEALDWEADAIWLELQAYRHN
notes: D domain, on phage
As to B26, the ELISA_avg amounted to 4.4 ratio A450 target/IgG1-Fc.

B27: SEQ ID NO: 518 (designed binder)
chain: MGSWTWFKWDLADIKGDLEALGGSEAELAFFEEEIAEFEWRLQDYKGKGNPEVEALRKEAAAIRDELQAYRHN
notes: D domain, on phage
On to B27, for which the ELISA_avg is 5.9 ratio A450 target/IgG1-Fc.

B28: SEQ ID NO: 532 (designed binder)
chain: MGSWFEFKWTLALIKQELEALGGSEAELADFEQEIAEFEWWLQTYKGKGNPEVEALRKEAAAIRDELQAYRHN
notes: D domain, on phage
For the molecule B28, the ELISA_avg turned out to be 4.9 ratio A450 target/IgG1-Fc.

B29: SEQ ID NO: 534 (designed binder)
chain: MGSWAEFKQRLAAIKTRLEALGGSEAELAAFEWEIVAFFSELFAYKGKGNPEVEALRDEAIAIETELVAYRHN
notes: D domain, on phage
With B29, the ELISA_avg is 3.6 ratio A450 target/IgG1-Fc.

B30: SEQ ID NO: 540 (designed binder)
chain: MGSWYEFDDRLDAIAYRLNALGGSEAELAWFEWEIAEFELDLQWYKGKGNPEVEALVWEADAIEWELEAYRHN
notes: D domain, on phage
As to B30, the ELISA_avg worked out at 4.6 ratio A450 target/IgG1-Fc.

B31: SEQ ID NO: 524 (designed binder)
chain: MGSWDFFKYDLANINEWLEALGGSEAELADFEYGIADFELWLQDYKGKGNPEVEALRKEAAAIRDELQAYRHN
notes: D domain, on phage
As for B31, the ELISA_avg was 5.5 ratio A450 target/IgG1-Fc.

B32: SEQ ID NO: 528 (designed binder)
chain: MGSWFQFKEFLAMITHNLEALGGSEAELAEFEHDIALFESELQQYKGKGNPEVEALRKEAAAIRDELQAYRHN
notes: D domain, on phage
For the molecule B32, the ELISA_avg was found to be 3.1 ratio A450 target/IgG1-Fc.

B33: SEQ ID NO: 522 (designed binder)
chain: MGSWWDFKDWLAEIKHDLEALGGSEAELALFESEIADFEFGLQWYKGKGNPEVEALRKEAAAIRDELQAYRHN
notes: D domain, on phage
For B33, the ELISA_avg was found to be 4.2 ratio A450 target/IgG1-Fc.

B34: SEQ ID NO: 536 (designed binder)
chain: MGSWWEFQFRLYAIDQRLLALGGSEAELAEFEQDIADFEWMLQDYKGKGNPEVEALMLEADAIEAELKAYRHN
notes: D domain, on phage
With B34, the ELISA_avg stood at 3.1 ratio A450 target/IgG1-Fc.

B35: SEQ ID NO: 548 (designed binder)
chain: MGSWTEFDDRLFAIYWRLDALGGSEAELAWFEEVIAEFENDLQVYKGKGNPEVEALDDEAHAISIELEAYRHN
notes: D domain, on phage
Regarding B35, the ELISA_avg was 6.4 ratio A450 target/IgG1-Fc.

B36: SEQ ID NO: 527 (designed binder)
chain: MGSWVVFKQDLADINHQLEALGGSEAELAWFEWEIADFEWELQHYKGKGNPEVEALRKEAAAIRDELQAYRHN
notes: D domain, on phage
Turning to B36, the ELISA_avg is 3.6 ratio A450 target/IgG1-Fc.

B37: SEQ ID NO: 541 (designed binder)
chain: MGSWFEFDERLDAIGSRLTALGGSEAELASFEFYIADFEEWLQQYKGKGNPEVEALEWEAFAIDEELGAYRHN
notes: D domain, on phage
On to B37, for which the ELISA_avg came out at 3.8 ratio A450 target/IgG1-Fc.

B38: SEQ ID NO: 538 (designed binder)
chain: MGSWYEFDMRLDAIWERLTALGGSEAELADFEQYIAEFERQLQDYKGKGNPEVEALFDEAWAIEDELYAYRHN
notes: D domain, on phage
Turning to B38, the ELISA_avg is 13.7 ratio A450 target/IgG1-Fc.

B39: SEQ ID NO: 519 (designed binder)
chain: MGSWLYFKEYLADIKSDLEALGGSEAELAWFEYEIADFEEQLQYYKGKGNPEVEALRKEAAAIRDELQAYRHN
notes: D domain, on phage
Regarding B39, the ELISA_avg was found to be 3.7 ratio A450 target/IgG1-Fc.

B40: SEQ ID NO: 556 (designed binder)
chain: MGSWREFDQRLWAIDWRLEALGGSEAELAMFEWMIATFEDDLQWYKGKGNPEVEALYREAFAIDWELDAYRHN
notes: D domain, on phage
For B40, the ELISA_avg is 3.4 ratio A450 target/IgG1-Fc.

The values above are taken from patent US20230125550A1 (ARCELLX, published 2023).
